The numbers were not newly measured in publication PMC10361579, which cites them from elsewhere.

pKd: −log10 of the molar value. Where “and” joins values, the source holds several entries; their conditions need not be identical. Equal values may be shown once.

Data set [1] has as its target classical cadherin (X-dimer) (UniProt P12830).
Data set [2] addresses classical cadherin (strand-swap dimer) (UniProt P12830).

As to “classical cadherin (X-dimer) (from UniProt P12830)”, the pKd in data set [1] was 3.04. As for “classical cadherin (strand-swap dimer) (from UniProt P12830)”, in data set [2], the pKd is 4.19 and 4.01.

Usually pKd stands for the negative decadic logarithm of the Kd, by convention in mol/L.
